Reference: paper PMC3615049 (Biochemistry, 2013)

How the values were obtained:
[1] = substrate: COC1=CC(=O)C(C)=C(C/C=C(\C)CCC=C(C)C)C1=O; experiment: purified protein; assay type: biochemical, Homo sapiens; conditions: 200 μM NADH, 5 μM enzyme, 25 °C, pH 7.0
[2] = substrate: COC1=CC(=O)C(C)=CC1=O; experiment: purified protein; assay type: biochemical, Homo sapiens; conditions: 200 μM NADH, 5 μM enzyme, 20 mM Tris pH 7.0 in H2O, 25 °C
[3] = molecular target: the molecule itself; experiment: SEC

B1: GB1-hCLK-1 (human Clock-1 with an N-terminal immunoglobulin binding domain of protein G) (enzyme, UniProt Q99807 39-217, looked up)
chain: MTLDNISRAAVDRIIRVDHAGEYGANRIYAGQMAVLGRTSVGPVIQKMWDQEKDHLKKFNELMVTFRVRPTVLMPLWNVLGFALGAGTALLGKEGAMACTVAVEESIAHHYNNQIRTLMEEDPEKYEELLQLIKKFRDEELEHHDIGLDHDAELAPAYAVLKSIIQAGCRVAIYLSERL
**Q.** With B1 as the protein, how does the Km [1] read?
**A.** Its Km is 33.8 µM.

**Q.** What about the Vmax [1] of the same protein?
**A.** Its Vmax is 39.2 µM/min.

**Q.** What about the kcat/Km [1] of the same protein?
**A.** Its kcat/Km is 3870 M⁻¹ s⁻¹.

**Q.** And the Km [2]?
**A.** Its Km is 68.1 µM.

**Q.** And the Vmax [2]?
**A.** Its Vmax is 12.8 µM/min.

**Q.** What about the kcat/Km [2] of the same protein?
**A.** The kcat/Km was 627 M⁻¹ s⁻¹.

**Q.** What about the “stoichiometry N” value [3] of the same protein?
**A.** The value was 2.
